Reference: article PMC6249866 (Molecular Biology of the Cell, 2018)

Biological target: T1, Asl-A-His6 (WT; Asterless amino acids 1-374) (Drosophila, UniProt Q9VNE4 1-374)
T1 sequence (looked up): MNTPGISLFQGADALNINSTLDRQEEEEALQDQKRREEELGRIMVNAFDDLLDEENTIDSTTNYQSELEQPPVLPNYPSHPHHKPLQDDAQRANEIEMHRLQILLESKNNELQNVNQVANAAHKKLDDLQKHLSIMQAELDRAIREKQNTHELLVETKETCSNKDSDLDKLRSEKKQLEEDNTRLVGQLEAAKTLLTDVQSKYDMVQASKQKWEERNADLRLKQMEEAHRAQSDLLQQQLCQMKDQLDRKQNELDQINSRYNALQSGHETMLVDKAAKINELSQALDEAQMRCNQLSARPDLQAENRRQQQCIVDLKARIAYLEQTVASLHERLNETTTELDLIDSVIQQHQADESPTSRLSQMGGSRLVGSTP
Assay: pull-down

B1: GST-PB1-PB2 (Plk4 amino acids 382-602) (domain or fragment, Drosophila, UniProt O97143 382-602, looked up)
chain: DRISVPPLNTKRLLPTRYKTKNAIMSILRNGEVVLEFLKFRPTYNEDRINDICRISDDGQRIIIYQPDPGRGLPVREQPPDLQIPSGDCVYNYDNLPSKHWKKYIYGARFVGLVKSKTPKVTYFSTLGKCQLMETMTDFEIRFYSGAKLLKTPSEGLKVYDRNGMLLSDYSCSESRSLIEHGNECFTHCVNISNALEVAQTKDNSCFPVTIGRRPITDVQP
- binding result: binds
